Substrate in this data set: CN(C)C(=N)NCCC[C@H](N)C(=O)O
Put plainly: enzyme kinetics of refolded recombinant enzyme. The data set is classed as biochemical, Homo sapiens. As to conditions: authors' own initial, unpublished results; assay conditions not told.

B1: recombinant human DDAH-2 (Homo sapiens) (protein)
chain: MGTPGEGLGRCSHALIRGVPESLASGEGAGAGLPALDLAKAQREHGVLGGKLRQRLGLQLLELPPEESLPLGPLLGDTAVIQGDTALITRPWSPARRPEVDGVRKALQDLGLRIVEIGDENATLDGTDVLFTGREFFVGLSKWTNHRGAEIVADTFRDFAVSTVPVSGPSHLRGLCGMGGPRTVVAGSSDAAQKAVRAMAVLTDHPYASLTLPDDAAADCLFLRPGLPGVPPFLLHRGGGDLPNSQEALQKLSDVTLVPVSCSELEKAGAGLSSLCLVLSTRPHS
A word on the Km: it is the substrate concentration at which the rate is half of its maximum. For the protein B1, the Km came out at 16 µM.
